Reference: patent US20050037969A1 (ARBOR VITA, published 2005)
Ends that are not written are not given here. * marks the point of attachment. Biotin = O=C1N[C@H]2[C@H](CS[C@H]2CCCCC(=O)*)N1

T1: GST-mouse syntenin fusion protein (Mus musculus, UniProt O08992 108-286)
T1 construct: also called Mus musculus Syntenin; not shown: glutathione S-transferase encoded by vector pGEX-3X (Pharmacia)
T1 chain: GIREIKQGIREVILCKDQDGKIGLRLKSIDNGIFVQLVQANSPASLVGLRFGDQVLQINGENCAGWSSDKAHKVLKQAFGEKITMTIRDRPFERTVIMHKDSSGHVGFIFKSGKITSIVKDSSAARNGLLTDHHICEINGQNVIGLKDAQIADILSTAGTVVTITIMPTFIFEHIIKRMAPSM

T2: GST-TAX-IP43 PDZ domain fusion protein (human, UniProt Q13884 109-180)
T2 construct: also called TAX43; not shown: glutathione S-transferase encoded by vector pGEX-3X (Pharmacia)
T2 sequence: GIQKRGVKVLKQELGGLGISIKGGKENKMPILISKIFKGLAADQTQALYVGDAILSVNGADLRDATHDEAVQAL

T3: MINT3 PDZ-GST fusion protein
T3 construct: Order of GST and PDZ part and limits not seen in the excerpts
T3 chain: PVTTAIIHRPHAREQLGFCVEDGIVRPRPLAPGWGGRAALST

T4: GST-KIAA0303 PDZ domain fusion protein (Homo sapiens (Human), UniProt O15021 1138-1228)
T4 construct: also called K303; not shown: glutathione S-transferase encoded by vector pGEX-3X (Pharmacia)
T4 sequence: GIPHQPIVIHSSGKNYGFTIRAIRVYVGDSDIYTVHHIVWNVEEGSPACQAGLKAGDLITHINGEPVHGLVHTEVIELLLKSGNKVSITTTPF

T5: KIAA0807 (PDZ domain)-GST fusion protein (human, UniProt Q6P0Q8 1104-1192)
T5 construct: also called K807; KIAA807; not shown: glutathione S-transferase encoded by vector pGEX-3X (Pharmacia)
T5 sequence: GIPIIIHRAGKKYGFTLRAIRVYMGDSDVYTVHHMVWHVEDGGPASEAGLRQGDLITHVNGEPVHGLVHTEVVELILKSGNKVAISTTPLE

T6: GEF PDZ-GST fusion protein (Homo sapiens (Human), UniProt Q8TEU7 293-400)
T6 construct: The label GEF is not explained in the excerpts
T6 sequence: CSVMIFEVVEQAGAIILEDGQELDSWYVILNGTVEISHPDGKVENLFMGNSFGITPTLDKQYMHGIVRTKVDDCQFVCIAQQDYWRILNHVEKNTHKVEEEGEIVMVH

T7: GST-PTN-4 PDZ domain fusion protein (Homo sapiens (Human), UniProt P29074 517-605)
T7 construct: also called protein-tyrosine phosphatase meg1; not shown: glutathione S-transferase encoded by vector pGEX-3X (Pharmacia)
T7 sequence: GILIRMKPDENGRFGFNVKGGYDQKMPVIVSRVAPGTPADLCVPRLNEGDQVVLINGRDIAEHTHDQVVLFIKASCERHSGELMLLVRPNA

T8: TAX-IP33 PDZ-GST fusion protein (Homo sapiens (Human), UniProt O14910 103-193)
T8 construct: Order of GST and PDZ part and limits not seen in the excerpts
T8 sequence: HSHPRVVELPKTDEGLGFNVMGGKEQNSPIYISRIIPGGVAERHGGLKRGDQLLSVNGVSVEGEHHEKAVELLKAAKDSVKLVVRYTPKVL

T9: GST-DLG5 (p-dlg) PDZ domain fusion protein (Human, UniProt Q8TDM6 1343-1583)
T9 construct: also called Human discs large protein p-dlg; not shown: glutathione S-transferase encoded by vector pGEX-3X (Pharmacia)
T9 sequence: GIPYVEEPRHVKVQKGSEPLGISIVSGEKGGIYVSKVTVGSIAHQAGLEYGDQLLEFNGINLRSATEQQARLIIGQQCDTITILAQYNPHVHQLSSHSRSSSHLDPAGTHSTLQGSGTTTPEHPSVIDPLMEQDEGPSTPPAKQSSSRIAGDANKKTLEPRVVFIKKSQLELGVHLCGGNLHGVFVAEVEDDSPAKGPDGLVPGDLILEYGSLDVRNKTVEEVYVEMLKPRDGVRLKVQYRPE

T10: SP short PDZ-GST fusion protein (Homo sapiens (Human), UniProt O43464 350-435)
T10 construct: The label SP short is not explained in the excerpts
T10 sequence: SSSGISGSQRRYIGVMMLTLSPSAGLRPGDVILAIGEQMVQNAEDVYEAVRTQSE

T11: GST-CASK PDZ domain fusion protein (Homo sapiens, UniProt O14936 486-575)
T11 construct: also called Homo sapiens CASK protein
T11 sequence: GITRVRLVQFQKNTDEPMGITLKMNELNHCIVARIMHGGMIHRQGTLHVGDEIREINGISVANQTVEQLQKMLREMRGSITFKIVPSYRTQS

T12: K559 PDZ-GST fusion protein (Homo sapiens (Human), UniProt Q9Y6V0 4489-4593)
T12 construct: Order of GST and PDZ part and limits not seen in the excerpts
T12 sequence: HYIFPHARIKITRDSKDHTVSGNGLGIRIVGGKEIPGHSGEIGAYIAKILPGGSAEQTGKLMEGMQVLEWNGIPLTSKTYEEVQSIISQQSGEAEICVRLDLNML

T13: TAX-IP2L PDZ-GST fusion protein (Homo sapiens (Human), UniProt Q8TF64 107-197)
T13 construct: Order of GST and PDZ part and limits not seen in the excerpts
T13 sequence: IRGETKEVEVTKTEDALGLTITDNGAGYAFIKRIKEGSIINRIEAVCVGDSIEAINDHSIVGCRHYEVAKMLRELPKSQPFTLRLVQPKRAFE

T14: GST-DVL1 PDZ domain fusion protein (human, UniProt O14640 247-339)
T14 construct: also called human dishevelled segment polarity protein homolog; not shown: glutathione S-transferase encoded by vector pGEX-3X (Pharmacia)
T14 sequence: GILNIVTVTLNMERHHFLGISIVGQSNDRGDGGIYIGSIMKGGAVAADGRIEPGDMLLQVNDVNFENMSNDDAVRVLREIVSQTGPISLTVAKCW

B1: CC CKR-4 C-terminal peptide AA44L (peptide)
peptide: Biotin-DTPSSSYTQSTMDHDLHDAL
notes: Only the last four residues are seen in the excerpts

Molecular target: T1, GST-mouse syntenin fusion protein
Experiment: A/G assays

Binding result, no binding:
B1
Biotin-ARHRVTSYTSSSVNVSSNL [CDW128A (IL8RA) C-terminal peptide AA29.1L, biotinylated]
Biotin-TSGTGHNQTRALRASESGI (also called CD97 (CD55L)) [CD97 C-terminal peptide AA14L, biotinylated]

Molecular target: T2, GST-TAX-IP43 PDZ domain fusion protein
Experiment: A/G assays

Binding result, no binding:
B1
Biotin-ARHRVTSYTSSSVNVSSNL [CDW128A (IL8RA) C-terminal peptide AA29.1L, biotinylated]
Biotin-TSGTGHNQTRALRASESGI (also called CD97 (CD55L)) [CD97 C-terminal peptide AA14L, biotinylated]

Molecular target: T3, MINT3 PDZ-GST fusion protein
Experiment: A/G assays

Binding result, no binding:
B1
Biotin-ARHRVTSYTSSSVNVSSNL [CDW128A (IL8RA) C-terminal peptide AA29.1L, biotinylated]
Biotin-TSGTGHNQTRALRASESGI (also called CD97 (CD55L)) [CD97 C-terminal peptide AA14L, biotinylated]

Molecular target: T15, K316 PDZ-GST fusion protein (Homo sapiens (Human), UniProt Q14CM0 72-159)
T15 construct: Order of GST and PDZ part and limits not seen in the excerpts
T15 sequence (Q14CM0 72-159 limits assumed): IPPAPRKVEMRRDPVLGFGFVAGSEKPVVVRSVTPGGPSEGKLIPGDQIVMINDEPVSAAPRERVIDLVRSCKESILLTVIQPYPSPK
Experiment: A/G assays

Binding result, no binding:
B1
Biotin-ARHRVTSYTSSSVNVSSNL [CDW128A (IL8RA) C-terminal peptide AA29.1L, biotinylated]
Biotin-TSGTGHNQTRALRASESGI (also called CD97 (CD55L)) [CD97 C-terminal peptide AA14L, biotinylated]

Molecular target: T4, GST-KIAA0303 PDZ domain fusion protein
Experiment: A/G assays

Binding result, no binding:
B1
Biotin-ARHRVTSYTSSSVNVSSNL [CDW128A (IL8RA) C-terminal peptide AA29.1L, biotinylated]
Biotin-TSGTGHNQTRALRASESGI (also called CD97 (CD55L)) [CD97 C-terminal peptide AA14L, biotinylated]

Molecular target: T5, KIAA0807 (PDZ domain)-GST fusion protein
Experiment: A/G assays

Binding result, no binding:
B1
Biotin-ARHRVTSYTSSSVNVSSNL [CDW128A (IL8RA) C-terminal peptide AA29.1L, biotinylated]
Biotin-TSGTGHNQTRALRASESGI (also called CD97 (CD55L)) [CD97 C-terminal peptide AA14L, biotinylated]

Molecular target: T6, GEF PDZ-GST fusion protein
Experiment: A/G assays

Binding result, no binding:
B1
Biotin-ARHRVTSYTSSSVNVSSNL [CDW128A (IL8RA) C-terminal peptide AA29.1L, biotinylated]
Biotin-TSGTGHNQTRALRASESGI (also called CD97 (CD55L)) [CD97 C-terminal peptide AA14L, biotinylated]

Molecular target: T16, PICK1 PDZ-GST fusion protein (Bos taurus (Bovine), UniProt Q2T9M1 17-105)
T16 construct: Order of GST and PDZ part and limits not seen in the excerpts
T16 sequence (Q2T9M1 other isoform, or with tags, fused parts or gaps limits assumed): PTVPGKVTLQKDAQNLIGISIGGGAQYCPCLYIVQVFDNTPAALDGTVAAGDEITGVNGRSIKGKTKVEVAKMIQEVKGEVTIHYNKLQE
Experiment: A/G assays

Binding result, no binding:
B1
Biotin-ARHRVTSYTSSSVNVSSNL [CDW128A (IL8RA) C-terminal peptide AA29.1L, biotinylated]
Biotin-TSGTGHNQTRALRASESGI (also called CD97 (CD55L)) [CD97 C-terminal peptide AA14L, biotinylated]

Molecular target: T7, GST-PTN-4 PDZ domain fusion protein
Experiment: A/G assays

Binding result, no binding:
B1
Biotin-ARHRVTSYTSSSVNVSSNL [CDW128A (IL8RA) C-terminal peptide AA29.1L, biotinylated]
Biotin-TSGTGHNQTRALRASESGI (also called CD97 (CD55L)) [CD97 C-terminal peptide AA14L, biotinylated]

Molecular target: T17, NOS1 PDZ-GST fusion protein (Homo sapiens (Human), UniProt P29475 11-100)
T17 construct: Order of GST and PDZ part and limits not seen in the excerpts
T17 sequence (P29475 11-100 limits assumed): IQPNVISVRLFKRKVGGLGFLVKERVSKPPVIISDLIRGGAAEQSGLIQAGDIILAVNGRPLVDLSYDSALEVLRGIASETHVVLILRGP
Experiment: A/G assays

Binding result, no binding:
B1
Biotin-ARHRVTSYTSSSVNVSSNL [CDW128A (IL8RA) C-terminal peptide AA29.1L, biotinylated]
Biotin-TSGTGHNQTRALRASESGI (also called CD97 (CD55L)) [CD97 C-terminal peptide AA14L, biotinylated]

Molecular target: T8, TAX-IP33 PDZ-GST fusion protein
Experiment: A/G assays

Binding result, no binding:
B1
Biotin-ARHRVTSYTSSSVNVSSNL [CDW128A (IL8RA) C-terminal peptide AA29.1L, biotinylated]
Biotin-TSGTGHNQTRALRASESGI (also called CD97 (CD55L)) [CD97 C-terminal peptide AA14L, biotinylated]

Molecular target: T9, GST-DLG5 (p-dlg) PDZ domain fusion …
Experiment: A/G assays

Binding result, no binding:
B1
Biotin-ARHRVTSYTSSSVNVSSNL [CDW128A (IL8RA) C-terminal peptide AA29.1L, biotinylated]
Biotin-TSGTGHNQTRALRASESGI (also called CD97 (CD55L)) [CD97 C-terminal peptide AA14L, biotinylated]

Molecular target: T10, SP short PDZ-GST fusion protein
Experiment: A/G assays

Binding result, no binding:
B1
Biotin-ARHRVTSYTSSSVNVSSNL [CDW128A (IL8RA) C-terminal peptide AA29.1L, biotinylated]
Biotin-TSGTGHNQTRALRASESGI (also called CD97 (CD55L)) [CD97 C-terminal peptide AA14L, biotinylated]

Molecular target: T11, GST-CASK PDZ domain fusion protein
Experiment: A/G assays

Binding result, no binding:
B1
Biotin-ARHRVTSYTSSSVNVSSNL [CDW128A (IL8RA) C-terminal peptide AA29.1L, biotinylated]
Biotin-TSGTGHNQTRALRASESGI (also called CD97 (CD55L)) [CD97 C-terminal peptide AA14L, biotinylated]

Molecular target: T12, K559 PDZ-GST fusion protein
Experiment: A/G assays

Binding result, no binding:
B1
Biotin-ARHRVTSYTSSSVNVSSNL [CDW128A (IL8RA) C-terminal peptide AA29.1L, biotinylated]
Biotin-TSGTGHNQTRALRASESGI (also called CD97 (CD55L)) [CD97 C-terminal peptide AA14L, biotinylated]

Molecular target: T13, TAX-IP2L PDZ-GST fusion protein
Experiment: A/G assays

Binding result, no binding:
B1
Biotin-ARHRVTSYTSSSVNVSSNL [CDW128A (IL8RA) C-terminal peptide AA29.1L, biotinylated]
Biotin-TSGTGHNQTRALRASESGI (also called CD97 (CD55L)) [CD97 C-terminal peptide AA14L, biotinylated]

Molecular target: T14, GST-DVL1 PDZ domain fusion protein
Experiment: A/G assays

Binding result, no binding:
B1
Biotin-ARHRVTSYTSSSVNVSSNL [CDW128A (IL8RA) C-terminal peptide AA29.1L, biotinylated]
Biotin-TSGTGHNQTRALRASESGI (also called CD97 (CD55L)) [CD97 C-terminal peptide AA14L, biotinylated]
